Test results from patent publication US20050196844A1.

Target: taxol stabilized microtubules prepared from phosphocellulose purified tubulin
Experiment: co-sedimentation with taxol stabilized microtubules through a sucrose cushion, Western blot of pellet and supernatant

Substance | binding efficiency
E. coli synthesized tau (352 residue isoform) phosphorylated in vitro by fyn (from UniProt P10636 2-758) | 50%
E. coli synthesized tau (352 residue isoform), non-phosphorylated (from UniProt P10636 2-758) | 50%
